From patent US20080193457A1, “Ra Antigenic Peptides” (priority 2003, published 2008)

B1: PSMD8 (218-233) (peptide)
peptide: GPNNYYSFASQQQKPE
notes: Found as eluted natural peptide and tested as synthetic peptide
B2: GILT (192-205) (peptide)
peptide: GDRGMQLMHANAQR
notes: Found as eluted natural peptide and tested as synthetic peptide; also called Interferon-gamma-inducible lysosomal thiol reductase (192-205)
B3: IL-1R (79-94) (peptide)
peptide: EKLWFVPAKVEDSGHY
notes: Found as eluted natural peptide and tested as synthetic peptide; also called Interleukin-1 receptor (79-94)
B4: HPX (351-365) (peptide)
peptide: TPHGIILDSVDAAFI
notes: Synthetic peptide in the in vitro assay; also called Hemopexin (351-365)
B5: CYRB (359-375) (peptide)
peptide: ETMKMRYEHIDHTFEIQ
notes: as for B1

molecular target: HLA-DRB1*0401 (Homo sapiens, UniProt P01903+P01911, A100K/A169T/F76Y/I96L/K127E/L162R/M171V/N62H/P40V/Q125Y/R42H/S133A/S149N/S66Y/V115G/V209L/W38E); assay: not given; conditions: reference peptides, literature (Table 1 footnote h); cited from earlier work

Row | Molecule | HLA-DRB1*0401 binder
1 | M. tuberculosis Hsp65 (3-13) (KTIAYDEEARR; UniProt P9WPE7 3-13, looked up, fragment) | weak HLA-DRB1*0401 binder

molecular target: T1, HLA-DR4 molecules (HLA-DRB1*0401), purified, detergent-solubilized (human); assay: in vitro competition binding assay: purified HLA-DR4, biotinylated HA(307-319) reporter, synthetic competitor peptide; conditions: not given
T1 construct: mature; The text says HLA-DR4

Row | Molecule | binding result
2 | NVVFVIDKSGSMSG (Synthetic peptide in the in vitro assay) [ITIH4 (274-287)] | binds
3 | B1 | binds
4 | B2 | binds
5 | GPHDVHVQIETSPPARN (Synthetic peptide in the in vitro assay) [Fig1 (293-309)] | binds
6 | B3 | binds
7 | B4 | binds
8 | GSREIKSQQSEVTR (Synthetic peptide in the in vitro assay) [SH3BGRL3 (13-26)] | binds
9 | B5 | binds
